Test results from the nanobody polyreactivity screen of Harvey et al. (2022).

Assay: yeast display, Sf9 membrane polyspecificity reagent, FACS + sequencing; frameworks hold sequencing errors
Procedure, shortened: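 Sorting gates, low and high (top ~1%), were placed on anti-HA fluorescence to track expression and on streptavidin fluorescence to track reagent binding. A clone's polyreactivity label is taken from the gate it came out of. The reagent was 10% biotinylated, detergent-solubilized Sf9 membrane, applied for 1 hour at 4 °C to galactose-induced yeast display cells.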

Row | Sequence | polyreactivity (PSR sort gate)
1 | QVQLVESGGGLVQEGGSLRLSCAATGSIFSSYAMGWYRQAPGKERELVASINSAGSTNYADSVKGRFTISRDNAKITVYLQMNSLKPEDTAVYYCARGGAVVYLDYWGQGTQVTVSS | low polyreactivity
2 | QVQLVESGGGLVQAGGSLRLSCAASGSIFRQYAMGWYRQAPGTERELVAAINYSGGNTYYADSVKGRFTISRDNAKNTVYLQMNSLKPEDTAVYYCAADSVRHYWWAYYYWGQGTQVTVSS | low polyreactivity
3 | QVQLVESGGGLVQAGGSLRLSCAASGSTFAGYALGWYRQAPGKERELVADITWSGGSTYYADSVKGRFTISRDNAKNTVYLQMNSLKPEDTAVYYCAAAGYYSDMDYWGQGTQVTVSS | low polyreactivity
4 | QVQLVESGGGLVQAGGSLRLSCAASGRIFYGYAMGWYRQAPGKEREFVARINVSGTSTFYADSVKGRFTISRDNAKNSVYLQMHSLKPEDTAVYYCAARGLPSNYYYYVHGYIMDYWGQGTQVTVSS | low polyreactivity
5 | QVQLVESGGGLVQAGGSLRLSCAASGFIFADYDMGWYRQAPGKERELVDAISWSGGTTYYADSVKGRFTISRDNAKHTVYLQMNSLKPEDTAVYYCAAYWWAVYSVVTGARYVYWGQGTQVTLSS | high polyreactivity
6 | QVKLVESGGGIVKAGCSLRLSCGASGLTYNTYDMGWYRQAPGKERELVADISRGRGSTYYADSVKGRFTISRDNAKNTVYLQMHSLKPEDTAFYYCNAEKRSSYLMYDYWGQGTQVTVSS | high polyreactivity
7 | QVQLVESGGGLVQAGGSLRLSCAASGSIFAAYTMGWYRQAPGKERELVATISSGGSTYYADSVKGRFTISRDNAKNTVYLQMNSLKPEDTAVYYCAAVIGNWQYQYYYWGQGTQVTVSS | low polyreactivity
8 | QVQLVESGGGLVQAGGSLRLSCAASGSTFTFNAMGWYRQAPGKERELVAAITTSAGSTYYADSVKGRFTISRDNAKNTVYLQMNSLKPEDTAVYYCAARYVPPWGRRYYYWGQGTQVTVSS | high polyreactivity
9 | QVQLVESGGGLVQAGGSLRLSCAASGRTFTRIAMGWYRPAPGKERELVAAIRWRGGGSTYYADSVKGRFTISRDNAKNTVYLQMNSLKPEDTAVYYCNARRYTGTGSAWYYYWGQGTQVTVSS | high polyreactivity
10 | QVQLVESGGGLVQAGGRLRLTCAASGSIFFYAMGWYRQAPGKERELVAGITTSGGSTYYADSVKGRFTISRDNAKNTVYLQMYSLKPEYTAVYYCAADGSRAGQEGNDYWGQGTQVTVSS | low polyreactivity
11 | QDQLVESGGGLVQAGGSLRLSCAASGRIFGINAMGWYRQAPGKERELVAAISSGGSTYYADSVKGRFTISRDNAKNTVYLQMNILKPEDTAVYYCAKGPSWKYYSYTLDYWGKGTQVTVSS | low polyreactivity
12 | QVQLVESGGGLVQAGGSLRLRCAASGSTFSGYAMGWYRKGPGKERELVAAISSGGGSTYYADSVKGRFTISRYNAKNTVYLQMNSLKPEDTDVYYCATGYPWYCGQGTQVTVSS | high polyreactivity
13 | QVQLVESGGGLVQAGGILRLSCAASGFIFQFNAMGWYRQAPGKEMEMDASISVSGGSTYYADSVKGRFTISRDNAKNTVYLQMNSLKPEDTAVYYCAATQRRYTYGHDYWGQGTQVTVSS | low polyreactivity
14 | QVQLVESGGGLVQAGGSLRLSCAPSGSTLFYNAMGCYRQSPGKETELVATISGGGVSTYYADSVNGRFRISRDNAKNSVYLQMYSLKPEDTAVYYCAAAGWSEGGYDYWGQGTQVTVSS | low polyreactivity
15 | QVQLVESGGVLVQAGGSLRLSCAASGSTFTTNAMGWYRQAPGKERELVARISRIGASTHYADSVKGRFTISRDNAKNTVYLQMNSLKPEDTAVYYCAKSKGTPGNFGYWGQGTQVTVSS | low polyreactivity
16 | QVQLVESGGGLVQAGGSLRLSCAASGSTFYYNAMGCYRQAPGKERELVAAISSDGSTNYADSVKGRFTISRDNAKNTVYLQMNSLKPEDTAVYYCAAENIVYVRSNWYWGYDYWGQGTQVTVSS | low polyreactivity
17 | QVQLVESGGGLVQAGGSLRLSCAASGRIFFHYAMGWYRQAPGKERELVAVISSSGGITYYADSVKGRFTFSRDNAKNTVYLQMNSLKPEDTAVYYCNTVPRPFDRYGYWGQGTQVTVSS | low polyreactivity
18 | QGQLVESGGGLVQAGGSLRLSCAASGSTFPSYAMGWYRQAPGKERELVAAISRRSSRTYYADSVKGRFTISRDNAKNTVYLQMNSLKPEDTAVYYCNADAGRHSDEYGYDYWGQGTEVTVSS | high polyreactivity
19 | QVQLVESGGGLVQAGGSLRLSCAASGRILGKYAMGWYRQSPGKERELVAAIRLRGGSTYYADSVKGRFTISRDNAKNTLYLQMNSLKPEDTAVYYCAARFWDRSQAYNYWGQGTQVTVSS | high polyreactivity
20 | QVQLVESGGGLVQAGGSLRLSCAASGGIFVFYGLGWYRQAPGKERELVAAINGNGDDTYYADSVKGRFTISRDNAKNTVYLQMNSLKPEDTAVYYCAAESRGDGDGYWGQGTQVTVSS | low polyreactivity
21 | QVQVVESGGGLVQAGGSLRLSCAASGFTFAWYTMGWYRQAPGKERELVAAISTGGNTYYADSVKGRFTISRDNAKNTVYLQMNSLKPEDTAVYYCATRPRGQTYNYWGQVTQVTVSS | high polyreactivity
22 | QVQLVESGGGLVQAGGSLRLSCGGSGRIFYSNAMGWYRQAPGKERELFAAIRYSGVRTYYADSLKGRFTISLDNEKNTVYLQMNSLNPEYTEVYYCNVYSRTHYQTYTDDYWGQGTQVNVSS | high polyreactivity

Row | Sequence | polyreactivity (PSR sort gate)
23 | QVQLVESGGGLVQAGGSLRLSCAASGRTIDWYAMGWYRQAPGKVRELVAGITYSGGSTYYADSVKGRFTISRDIANKTVYFQMNSLKPEDTAVYYCAAAKSYRSGSWYEYWGQGTQVTVSS | high polyreactivity
24 | QVQLVESGGGLVQAGGSLRLSCAASGFTFVYNAMGWYRQAPGKERELVAAITSGGNTYYADSVKGRFTISRDNAKNTVYLQMNSLKPEDTAVYYCAKRGYGRYYAYDYWGQGTQVTVSS | high polyreactivity
25 | QVQLVESGGGLVQAGGSLRLICAASGFTFASNDMGWYRQAPGKERELVAAITKGGGRTYYADSVKGRFTISRDNAKNTVYFQMNSLKPEETAVYYCAGRQLIKYDYWGQGTQVTVSS | low polyreactivity
26 | QVQLVESGGGLVQAGGSLRLSCAASGSTFDSYAMGWYRQAPGKERELVAAITRSDASTYYADSVKGRFTISRDNAKNTVYLQMNSLKPEDTAVYYCDADTSLVYYGGDWEYYYWGQGTQVTVSS | low polyreactivity
27 | QVQLVESGGGLVQAGGSLRLSCAASGSTLVAYAMGWYRQAPGKERELVAAISRSGGNTYYADSVKGRFTISRDNAKNTVYFQMISLKPEDTAVYYCAAVRLYRYDYWGQCTQVTVSS | low polyreactivity
28 | QVQLVESGGGLVQAGGTLRLSCAASGFTYKYYGMGWYRQAPGKERELVAAITSSGSTYYADSVKGRFTISRDNAKNTVYLQMNSLKPEDTAVYYCAAEGQRWQRWRYNYWGQGTQVTVSS | high polyreactivity
29 | QVQLVESGGGLVQAGGSLRLSCAASGSIFDYYAMGWYRQAPGKERELVATISGGGGTTYYADSVKGRFTISRDNAKNTVYLQMNSLKPEDTAVYYCAAVSLGYNYWGQGTQVTVSS | low polyreactivity
30 | QVQLVESGGGLVQAGGSLRLSCAASGSIFGYNVMGWYRQAPGKERELVAGITSGGSTNYADSVKGRFTISRDNAKNTVYLQMNSLKPEDTAVYYCNAEGVFGDGRSGFYWYDYWGQGTQVTVSS | low polyreactivity
31 | QVQLVESGGGLVQAGGSLRLSCAASGRNILPYAMGWYRPSPGKERELVAAISVSGVITYYAESVKGRFTISRDNAKNTVYLQMNSLKPEDTEVYYCASDYTPRRWGRLYDYWGQGTQVTVSS | low polyreactivity
32 | QVQLVESGGGLDQAGGSLRLSCAASGIIFVSNAMGWYRQAPGKERELVATITWTGGSTYYADSVKGRFTISRDNAKNTVYLQMNSLKPEDTAVYYCAADLSIRYDHEYGYWGQGTQVTVSS | low polyreactivity
33 | QVQLVESGGGLVQAGGSLRLSCAASGSTFNRYVMGWYRQAPGKERELVAANGGRTYYADSVKGRFTISRDNAKNTVYLQMNSLKPEDTAVYYCNARSYKHPYYRFDYWGQGTQVTVSS | high polyreactivity
34 | QVQLVESGGGLVQAGGSLRLSCAASGSIFNYYAMGWYRQAPGKERELVAAISTSGGRTYYADSVKGRFTISRDNAKKTVYLQMNSLKPEDTAVYYCNAVSRTRAGAGDYWGQGTQVTVSS | high polyreactivity
35 | QVQLVESGGGLVQAGGSLRLSCAASGRTFYVYSMGWYRQAPGKERELVAAITASGGSTYYADSVKGRFTLSRDNAKNTVYLQMHSLKPEDTAVYYCAARVVTRVRGVGYNYWGHGTQVTVSS | high polyreactivity
36 | QVQLVESGGGLVQAGGSLRLSCAASGSTFWVYTKGWYRQAPGKERELVAAITGSTGNTYYADSVKGRFTISRDNPKNTVYFQMNSLKPEDTAVYYCSADSYWSYRYPMGYDNWGQGSQVTVSS | low polyreactivity
37 | QVQLVESGGGLVQAGASLRLICDASGSIFPYNAMGWYRQAPGKERELVAVITSSGGSTYYADSVKGRFTISRDNAKNTVYLQLNSLKPEDTAVYYCAVLNHRVDSVLTRYYYWGQGTQVTVSS | low polyreactivity
38 | QVQLEESGGGLVQAGVSLRLSCAASGRIFLSNAMGWYRQAPGKEREFVAAISWRGGSTYYADSVKGRFTISRDNAKNTVYLQMNSLKPEDTAVYYCAVDVRYYYGRSYDYWGQGTQVTVSS | high polyreactivity
39 | QVQLVESGGGLVQAGGSLRLSCAASGSIFSYNVMGWYRQAPGKERELVAAISYGGGSTYYADSVKGRFTISRDTAKNTVYLQMNSLKPEDTAVYYCAARKWYTYYPYDYWGQGTQVTVSS | high polyreactivity
40 | QVQLVESGGGLVQAGGSLRLSCAASGRIFPENAMGWYRQAPGTERELVAAISKNGGRTYYADSVKGRFTISRDNAKNTVYLQMNSLKPEDTAVYYCNRRVQARRYRYDYWGQGTQVTVSS | high polyreactivity
41 | QVQLVESGGGLVQAGGSLRLSCAASGSTLDFNAMGWYRQAPGKERELVAGISRDGGSTYYADSVKGRFTISRDNAKNTVYLQMNSLKPEDTAVYYCAVDFLDWYQDYYITYDYWGQGTQVTVSS | low polyreactivity
42 | QVQLVEAGGGLVQAGGSLRLSCAASGRILRYYTMGWYRPAPGKERELVAAISRRGTSTHYADSVKGRFTISRDHAKNTVYLQMNSLKPEDTAVYYCAADPSVWSDYYYWGQGTQVTVSS | high polyreactivity
43 | QVQLVESGGGLVQAGGSLRLSCAASGSTFYVNAMGWYSQAPGKEREFVAAITWNSGSTYYADSVKGRFTISRDNAKNTVYLQMNSLKPEDTAVYYCAAVLSVRVYGYDYWGQGTQVTVSS | low polyreactivity
